Measurements: US20100168443A1, “Ethoid-Containing Compounds, Methods for Preparing Ethoid-Containing Compounds, and Methods of Use” (UNIVERSITY OF VIRGINIA PATENT FOUNDATION, priority 2006, published 2010)
Where a SMILES comes first, the peptide text is derived from it. Where no end group is shown, it is not given here. [ ]: non-standard residue; d: D form. NMeF = CN[C@@H](Cc1ccccc1)C(=O)O; Nle = CCCC[C@H](N)C(=O)O

Experiments:
[1] = target: T1, Tachykinin NK2 HUMAN receptor (Homo sapiens, UniProt P21452); settings: radioligand; Human recombinant (CHO cells); cited from earlier work
T1 construct: host or cells: CHO
T1 sequence (P21452 1-398): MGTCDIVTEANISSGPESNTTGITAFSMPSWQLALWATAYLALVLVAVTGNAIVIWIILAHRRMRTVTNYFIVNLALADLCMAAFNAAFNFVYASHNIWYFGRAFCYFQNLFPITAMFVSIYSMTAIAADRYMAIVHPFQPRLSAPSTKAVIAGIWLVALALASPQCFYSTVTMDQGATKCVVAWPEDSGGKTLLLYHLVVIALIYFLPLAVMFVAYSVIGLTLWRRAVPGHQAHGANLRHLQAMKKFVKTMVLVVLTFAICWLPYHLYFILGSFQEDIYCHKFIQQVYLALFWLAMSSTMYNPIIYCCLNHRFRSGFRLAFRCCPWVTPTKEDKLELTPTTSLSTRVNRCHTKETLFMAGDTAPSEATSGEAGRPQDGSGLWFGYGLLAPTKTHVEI

DPP-4 peptidase = target: T2, DPP-4 peptidase (Homo sapiens, UniProt P27487); test: DPP4 enzyme stability assay; type: in vitro ADME; settings: 1 mU DPP-4, tris buffer pH 7.5, 37° C, up to 8 hours incubation
T2 construct: purchased Sigma-Aldrich
T2 sequence (P27487 whole entry): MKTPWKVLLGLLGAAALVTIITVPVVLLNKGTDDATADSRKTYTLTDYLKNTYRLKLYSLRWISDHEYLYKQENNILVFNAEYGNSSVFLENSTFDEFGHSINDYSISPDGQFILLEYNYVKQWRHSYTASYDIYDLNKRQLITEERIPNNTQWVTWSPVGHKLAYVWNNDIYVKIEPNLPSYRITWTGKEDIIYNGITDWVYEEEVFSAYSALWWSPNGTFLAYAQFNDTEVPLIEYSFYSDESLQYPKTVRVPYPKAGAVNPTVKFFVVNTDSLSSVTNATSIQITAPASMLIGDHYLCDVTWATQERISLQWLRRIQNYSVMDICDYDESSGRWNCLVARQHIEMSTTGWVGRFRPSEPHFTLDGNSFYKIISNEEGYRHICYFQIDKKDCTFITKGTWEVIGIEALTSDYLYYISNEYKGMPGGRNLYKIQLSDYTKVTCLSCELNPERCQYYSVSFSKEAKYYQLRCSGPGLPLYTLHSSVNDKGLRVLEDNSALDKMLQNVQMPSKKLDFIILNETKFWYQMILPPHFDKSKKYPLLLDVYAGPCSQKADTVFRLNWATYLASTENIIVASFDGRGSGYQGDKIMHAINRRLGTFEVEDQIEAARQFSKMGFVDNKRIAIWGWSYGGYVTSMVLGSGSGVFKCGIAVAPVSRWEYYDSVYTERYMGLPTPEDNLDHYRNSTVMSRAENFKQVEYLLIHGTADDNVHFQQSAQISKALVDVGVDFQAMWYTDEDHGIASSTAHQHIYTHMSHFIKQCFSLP

[2] = target: human GnRH recombinant receptor (AequoScreen cell line, FAST-0160A) (human) (UniProt P30968); test: cell-based or functional assay
Chain of human GnRH recombinant receptor (AequoScreen cell line, FAST-0160A) (human) (P30968 whole entry): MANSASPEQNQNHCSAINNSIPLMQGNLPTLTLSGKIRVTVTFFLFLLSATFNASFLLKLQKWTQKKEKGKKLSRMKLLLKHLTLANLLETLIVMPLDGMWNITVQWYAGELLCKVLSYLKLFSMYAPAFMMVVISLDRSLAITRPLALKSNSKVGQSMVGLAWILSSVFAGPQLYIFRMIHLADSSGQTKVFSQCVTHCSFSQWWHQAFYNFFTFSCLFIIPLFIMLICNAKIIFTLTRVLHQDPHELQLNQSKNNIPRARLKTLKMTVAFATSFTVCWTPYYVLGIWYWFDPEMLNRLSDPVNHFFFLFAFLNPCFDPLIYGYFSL

[3] = target: T3, Tachykinin NK3 human receptor (human recombinant, CHO cells) (human, UniProt P29371 1-465); test: radioligand binding, human recombinant NK3 in CHO cells (MDS Pharma assay #255710; printed as assay parameter)
T3 construct: whole, on cells
T3 sequence (looked up): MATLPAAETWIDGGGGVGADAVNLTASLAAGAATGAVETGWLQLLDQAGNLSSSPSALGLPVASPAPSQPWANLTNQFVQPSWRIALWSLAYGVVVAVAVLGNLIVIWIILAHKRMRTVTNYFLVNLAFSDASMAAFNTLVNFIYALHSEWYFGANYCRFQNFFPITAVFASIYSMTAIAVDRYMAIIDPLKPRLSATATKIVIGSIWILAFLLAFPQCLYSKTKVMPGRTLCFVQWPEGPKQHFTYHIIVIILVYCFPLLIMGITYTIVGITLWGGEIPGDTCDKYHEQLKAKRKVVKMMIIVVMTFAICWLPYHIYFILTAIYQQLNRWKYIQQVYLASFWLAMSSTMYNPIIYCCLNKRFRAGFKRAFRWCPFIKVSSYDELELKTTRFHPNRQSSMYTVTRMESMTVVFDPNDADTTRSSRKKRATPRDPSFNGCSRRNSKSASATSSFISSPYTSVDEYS

CC(=O)NC1(c2ccccc2)CCN(CC[C@H](CN(C)C(=O)c2ccccc2)c2ccc(Cl)c(Cl)c2)CC1 [[3H] SR-48968]
Kd [1]: 0.25 nM

CCCC[C@H](NC(=O)[C@@H](NC(=O)[C@H](CC(=O)O)NC(=O)[C@H](CCC(N)=O)NC(=O)[C@H](CC(C)C)NC(=O)[C@H](CC(C)C)NC(=O)[C@H](CCCCN)NC(=O)[C@H](CCCNC(=N)N)NC(=O)[C@H](C)NC(=O)[C@H](CO)NC(=O)[C@H](CC(C)C)NC(=O)[C@H](CCC(N)=O)NC(=O)CNC(=O)[C@H](CC(C)C)NC(=O)[C@@H](NC(=O)[C@H](CCCCN)NC(=O)[C@H](CCCNC(=N)N)NC(=O)[C@H](Cc1ccc(O)cc1)NC(=O)[C@H](C)NC(=O)[C@H](C)NC(=O)[C@@H](NC(=O)[C@H](Cc1ccccc1)NC(=O)[C@@H](NC(=O)[C@H](C)NC(=O)[C@H](CC(=O)O)NC(=O)[C@H](C)NC(=O)[C@@H](N)Cc1ccc(O)cc1)[C@@H](C)CC)[C@@H](C)O)C(C)C)[C@@H](C)CC)C(=O)N[C@@H](CO)C(=O)N[C@@H](CCCNC(=N)N)C(N)=O [peptide control] (H-YADAIFTAAYRKVLGQLSARKLLQDI[Nle]SR-NH2)
DPP-4 peptidase resistance (degradation by HPLC-MS) (DPP-4 peptidase): substantially cleaved

[D-Trp6] LHRH (Bachem, H4075) (peptide)
EC50, aequorin luminescence agonist assay (AequoScreen cells) [2]: 0.14 nM
EC50, historical value of the same assay [2]: 0.38 nM

B1: [125I] MePhe7-Neurokinin B (peptide)
peptide: DMHDFF[NMeF]GLM-NH2
modifications: ends and bridges not checked; also: 125I label, position not given here
Kd [3]: 0.28 nM
